Measured values as given in PMC4672733 (Immunity, 2015).

Biological target: T1, GST-CARD9 (human, UniProt Q9H257 1-536)
T1 sequence (looked up): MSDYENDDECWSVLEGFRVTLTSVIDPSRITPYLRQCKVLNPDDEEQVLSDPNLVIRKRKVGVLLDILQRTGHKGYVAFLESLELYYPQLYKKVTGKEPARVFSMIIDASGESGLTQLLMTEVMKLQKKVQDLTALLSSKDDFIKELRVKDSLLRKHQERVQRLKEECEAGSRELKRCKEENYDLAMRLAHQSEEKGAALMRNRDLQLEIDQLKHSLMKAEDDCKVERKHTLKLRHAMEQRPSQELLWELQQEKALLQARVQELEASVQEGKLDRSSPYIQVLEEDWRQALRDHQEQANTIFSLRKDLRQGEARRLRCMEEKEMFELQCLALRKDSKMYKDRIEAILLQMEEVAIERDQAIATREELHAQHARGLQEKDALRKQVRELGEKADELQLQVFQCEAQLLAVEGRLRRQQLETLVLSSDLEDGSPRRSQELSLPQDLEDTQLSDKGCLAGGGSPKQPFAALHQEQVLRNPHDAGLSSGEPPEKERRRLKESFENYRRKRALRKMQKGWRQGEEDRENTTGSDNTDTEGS
Test: ELISA

binding result: binds
B1: purified FLAG-tagged CARD9 WT (natural protein, human, UniProt Q9H257 1-536, looked up)
chain: MSDYENDDECWSVLEGFRVTLTSVIDPSRITPYLRQCKVLNPDDEEQVLSDPNLVIRKRKVGVLLDILQRTGHKGYVAFLESLELYYPQLYKKVTGKEPARVFSMIIDASGESGLTQLLMTEVMKLQKKVQDLTALLSSKDDFIKELRVKDSLLRKHQERVQRLKEECEAGSRELKRCKEENYDLAMRLAHQSEEKGAALMRNRDLQLEIDQLKHSLMKAEDDCKVERKHTLKLRHAMEQRPSQELLWELQQEKALLQARVQELEASVQEGKLDRSSPYIQVLEEDWRQALRDHQEQANTIFSLRKDLRQGEARRLRCMEEKEMFELQCLALRKDSKMYKDRIEAILLQMEEVAIERDQAIATREELHAQHARGLQEKDALRKQVRELGEKADELQLQVFQCEAQLLAVEGRLRRQQLETLVLSSDLEDGSPRRSQELSLPQDLEDTQLSDKGCLAGGGSPKQPFAALHQEQVLRNPHDAGLSSGEPPEKERRRLKESFENYRRKRALRKMQKGWRQGEEDRENTTGSDNTDTEGS
